Reference: IntAct's records for PubMed 17923090

B1: Interferon regulatory factor 9 (Homo sapiens), Q00978 (parent)
chain: MASGRARCTRKLRNWVVEQVESGQFPGVCWDDTAKTMFRIPWKHAGKQDFREDQDAAFFKAWAIFKGKYKEGDTGGPAVWKTRLRCALNKSSEFKEVPERGRMDVAEPYKVYQLLPPGIVSGQPGTQKVPSKRQHSSVSSERKEEEDAMQNCTLSPSVLQDSLNNEEEGASGGAVHSDIGSSSSSSSPEPQEVTDTTEAPFQGDQRSLEFLLPPEPDYSLLLTFIYNGRVVGEAQVQSLDCRLVAEPSGSESSMEQVLFPKPGPLEPTQRLLSQLERGILVASNPRGLFVQRLCPIPISWNAPQAPPGPGPHLLPSNECVELFRTAYFCRDLVRYFQGLGPPPKFQVTLNFWEESHGSSHTPQNLITVKMEQAFARYLLEQTPEQQAAILSLV
partner: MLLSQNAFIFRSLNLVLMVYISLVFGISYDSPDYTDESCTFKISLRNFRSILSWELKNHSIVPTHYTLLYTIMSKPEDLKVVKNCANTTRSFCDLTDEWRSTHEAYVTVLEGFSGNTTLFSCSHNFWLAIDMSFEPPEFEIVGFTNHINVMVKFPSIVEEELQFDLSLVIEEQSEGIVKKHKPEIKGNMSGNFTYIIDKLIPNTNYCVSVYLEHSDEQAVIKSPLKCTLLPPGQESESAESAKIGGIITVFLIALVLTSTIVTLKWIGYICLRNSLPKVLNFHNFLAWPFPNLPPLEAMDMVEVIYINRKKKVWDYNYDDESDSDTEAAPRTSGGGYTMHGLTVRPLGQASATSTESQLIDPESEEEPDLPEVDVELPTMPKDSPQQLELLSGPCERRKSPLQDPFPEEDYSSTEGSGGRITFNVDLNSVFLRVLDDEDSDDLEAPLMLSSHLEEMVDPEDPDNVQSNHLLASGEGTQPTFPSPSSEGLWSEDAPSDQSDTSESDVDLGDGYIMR
B2: Interferon alpha/beta receptor 2 (Homo sapiens), P48551 (parent)
chain: B1 partner
partner: B1 chain
B3: Interferon alpha/beta receptor 2 (Homo sapiens), P48551 (parent)
chain: B1 partner

Variants of: B1
Conditions: with inar2_human IFNAR2, P48551

Row | Variant | effect of a mutation on the interaction
1 | R292Q | decreasing interaction

Variants of: B2
Conditions: with irf9_human IRF9, Q00978

Row | Variant | effect of a mutation on the interaction
2 | K399A | decreasing interaction
3 | K399A;S400A | decreasing interaction
4 | S400A | increasing interaction

Variants of: B3
Conditions: with cbp_human CREBBP

Row | Variant | effect of a mutation on the interaction
5 | S384A | decreasing interaction
6 | S364A | decreasing interaction
